The target in experiment [1] is T1, GPCR135 (Homo sapiens, UniProt Q9NSD7).
T1 sequence (Q9NSD7 1-469): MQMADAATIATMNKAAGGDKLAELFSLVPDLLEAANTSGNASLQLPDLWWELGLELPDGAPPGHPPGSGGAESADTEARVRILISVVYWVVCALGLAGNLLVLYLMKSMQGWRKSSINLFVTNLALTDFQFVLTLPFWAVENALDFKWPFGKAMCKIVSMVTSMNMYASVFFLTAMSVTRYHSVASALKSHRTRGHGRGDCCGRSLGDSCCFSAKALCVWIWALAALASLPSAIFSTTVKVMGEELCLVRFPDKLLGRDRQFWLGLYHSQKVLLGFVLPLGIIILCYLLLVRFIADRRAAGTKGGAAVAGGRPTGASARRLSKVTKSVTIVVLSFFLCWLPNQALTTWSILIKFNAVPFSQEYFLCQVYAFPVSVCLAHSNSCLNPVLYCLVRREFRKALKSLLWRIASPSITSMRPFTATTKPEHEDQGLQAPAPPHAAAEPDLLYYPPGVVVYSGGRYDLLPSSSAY
Description: Intracellular cAMP accumulation assay in CHO-K1 cells. Format: cell-based. Also noted: primers complementary to the putative translation start and stop sites of the GPCR135 open reading frame; expressed in transfected cells; host or cells: CHO-K1 (transient, pCIneo vector); isolated cell membranes. How it is done: CHO-K1 cells stably expressing human GPCR135 (GPCR135) and un-transfected CHO-K1 cells (Control) were used for cAMP accumulation assays. Cells were treated with different stimulants as indicated. cAMP accumulated in the cells was extracted by HCl and the concentration of cAMP was measured by a ELISA kit (NEN) using ^125I-labeled cAMP and Flash plates.
CHO-K1 cells stably expressing human GPCR135 were established by transfection of GPCR135 expressing plasmid into CHO-K1 (ATCC# CCL-61) cells and culturing the transfected cells under selection of G418 (400 mg/L). The receptor expressing cells were seeded in 96-well plates at a cell density of 30,000 cells/well. Twenty-four hours later, cell culture medium was replaced with DMEM-F12 plus 2 mM IBMX (sigma). A different test compound for cAMP stimulation was added to each well. The reactions were incubated at room temperature for 20 min. Twenty micro-liters of 0.5 N HCl was added to each well to stop the reaction and extract the accumulated cAMP. The cAMP concentration was measured using a cAMP ELISA kit (NEN).
On the technique in general: Changes in cAMP serve as a functional read-out for many G protein-coupled receptors.

In experiment [2] the target is T1, GPCR135. Description: Radioligand binding assay in transfected COS-7 cells. The settings on record: COS-7 cells transfected with human GPCR135; competitor 1 μM unlabeled relaxin3. The method, then: (§1) COS7 cells, either untransfected (NC) or transfected with pcDNA3.1 (the vector control), human GPCR135 (hGPCR135), mouse GPCR135 (mGPCR135), rat GPCR135 long form (rGPCR135L), and rat GPCR135 short form (rGPCR135s) respectively, were used for binding assays using ^125I-labeled human relaxin3 either in the present (“Competition”) or absence (“Total Binding”) of 1 µM of unlabeled human relaxin3 as the competitor.
(§2) COS-7 cells in 6-well tissue culture plates were transfected by GPCR135 expressing plasmid using LipofectAmine. Two days after transfection, cells were washed with binding buffer: DMEM plus 50 mM Hepes, pH 7.2 and 1% BSA. ^125I-label human relaxin3 was added to each well in 1 ml of binding buffer at presence or absence 1 μM of unlabeled relaxin as competitor. The binding assays were carried out at room temperature for one hour and the unbound ligand was washed away by ice-cold PBS. The bound ^125I-relaxin3 was counted in a gamma counter.

In another experiment the target is T2, mouse GPCR135 (Mus musculus, UniProt Q8BGE9).
T2 construct: Mouse GPCR135 coding region was PCR amplified from mouse genomic DNA; expressed in transfected cells; host or cells: COS-7 (ATCC CRL-1651), transient
T2 sequence (Q8BGE9 1-472): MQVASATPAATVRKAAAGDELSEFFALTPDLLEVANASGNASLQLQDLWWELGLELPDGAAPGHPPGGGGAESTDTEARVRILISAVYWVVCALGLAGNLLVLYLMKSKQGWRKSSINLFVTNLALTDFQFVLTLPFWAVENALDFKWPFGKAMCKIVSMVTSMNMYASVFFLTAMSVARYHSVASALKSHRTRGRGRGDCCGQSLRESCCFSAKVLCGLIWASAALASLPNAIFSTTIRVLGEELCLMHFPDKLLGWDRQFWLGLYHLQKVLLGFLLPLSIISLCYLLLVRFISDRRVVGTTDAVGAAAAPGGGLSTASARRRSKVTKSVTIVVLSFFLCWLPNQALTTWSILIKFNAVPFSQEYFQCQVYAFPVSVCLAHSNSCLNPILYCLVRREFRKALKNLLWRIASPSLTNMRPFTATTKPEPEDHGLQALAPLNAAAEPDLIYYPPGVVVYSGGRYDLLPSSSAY
The description is as above. Conditions: COS-7 cells transfected with mouse GPCR135; competitor 1 μM unlabeled relaxin3. How it is done: as §1, §2

In the next experiment the test system is rat GPCR135. Described as above. The settings on record: COS-7 cells transfected with rat GPCR135 (long and short form); competitor 1 μM unlabeled relaxin3. The method, then: as §1, §2
For experiment [3], the target named is T1, GPCR135. The settings on record: transient expression in Cos-1 cells; cited from earlier work.
Another experiment has as its target T3, LGR7 (Homo sapiens, UniProt Q9HBX9).
T3 sequence (Q9HBX9 1-757): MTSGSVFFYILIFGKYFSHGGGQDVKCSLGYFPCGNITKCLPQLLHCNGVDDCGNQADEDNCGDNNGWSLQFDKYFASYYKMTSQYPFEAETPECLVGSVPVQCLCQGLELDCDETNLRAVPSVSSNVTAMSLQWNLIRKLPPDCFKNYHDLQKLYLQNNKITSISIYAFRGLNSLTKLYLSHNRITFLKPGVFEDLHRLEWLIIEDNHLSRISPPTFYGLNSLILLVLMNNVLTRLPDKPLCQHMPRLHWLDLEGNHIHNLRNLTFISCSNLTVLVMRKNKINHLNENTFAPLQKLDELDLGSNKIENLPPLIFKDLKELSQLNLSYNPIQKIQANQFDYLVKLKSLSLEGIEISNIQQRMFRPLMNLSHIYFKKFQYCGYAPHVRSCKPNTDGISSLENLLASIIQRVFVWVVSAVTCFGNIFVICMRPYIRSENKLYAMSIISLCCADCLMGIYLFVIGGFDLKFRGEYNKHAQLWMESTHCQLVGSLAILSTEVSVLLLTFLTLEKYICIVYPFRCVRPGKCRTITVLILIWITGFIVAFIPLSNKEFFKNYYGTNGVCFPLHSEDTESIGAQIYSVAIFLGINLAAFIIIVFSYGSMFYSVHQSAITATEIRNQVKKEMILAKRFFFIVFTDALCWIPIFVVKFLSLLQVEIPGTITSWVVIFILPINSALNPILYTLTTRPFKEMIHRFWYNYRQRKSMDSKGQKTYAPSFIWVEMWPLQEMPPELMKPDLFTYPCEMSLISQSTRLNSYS
Conditions: cited from earlier work.

Experiment [4] concerns the target T1, GPCR135. Description: Ca2+ mobilization assay (FLIPR) in HEK293 cells co-expressing GPCR135 and Gqi5. Format: cell-based. Set-up: primers complementary to the putative translation start and stop sites of the GPCR135 open reading frame; expressed in transfected cells; host or cells: HEK293 (ATCC CRL-1573), transient co-transfection with Gqi5. How it is done: Using LipofectAmine, human embryonic kidney (HEK) 293 cells were co-transfected with a plasmid expressing GPCR135 receptor and a plasmid expressing Gqi5, a mutant G-protein that translates the activation of GPCR135 into an increased intracellular Ca^2+, or increased Ca^2+ mobilization (Conklin et al., 1993, Nature 363: 274-276). Two days after transfection, cells were detached with PBS plus 10 mM EDTA, pH 8.0. The detached cells were washed with DMEM-F12 medium (without phenol red, Invitrogen) and seeded in black poly-D lysine coated 96-well plates at a cell density of 50,000 cell/well. Calcium dye, Fluo-3 (AM) (TEFLABS, Austin, Tex.) was loaded into the cells and ligand stimulated calcium mobilization was monitored using FLIPR (Molecular Device).
HEK293 cells, untransfected (293 Control) or transfected by Gqi5 (293/Gqi5) alone or human GPCR135 (GPCR135) alone, or co-transfected by human GPCR135 and Gqi5 (GPCR135/Gqi5), were used for Ca^2+ mobilization assays under stimulation of relaxin3 as the ligand. Ligand-stimulated intracellular mobilization was monitored using FLIPR.
On the technique in general: Calcium assays in cells follow changes in intracellular calcium, usually with a dye or a luminescent sensor.

Experiment [5] concerns the target T1, GPCR135. Description: GTPγS binding assay with GPCR135 expressing cell membranes. It is filed as biochemical. Also noted: primers complementary to the putative translation start and stop sites of the GPCR135 open reading frame; expressed in transfected cells; host or cells: CHO-K1 (transient, pCIneo vector); isolated cell membranes. The settings on record: GPCR135 expressing cell membrane. The method, then:
Frozen rat brains (5 g) were homogenized at −30° C. in 40 ml ethanol/HCl (ethanol to 0.8M HCl ratio at 3:1). The homogenate was extracted at 4° C. for 2 hr and then centrifuged at 4° C. at 20,000 g for 30 min. The supernatant was loaded onto a 2 ml SP-Sephadex C-25 column (Amersham), washed with 1 M acetic acid and eluted with 2 M pyridine and 1 M acetic acid. The eluted fraction was loaded onto a 6 ml C-18 BondElut column, washed with 0.1% TFA and eluted with 60% acetonitrile and 0.1% TFA. The eluted peptides were lyophilized, reconstituted in water, and tested for GPCR135 ligand activity using GTPγS binding assay as described in Example 5.
The expression vector was transfected into COS-7 cells using LipofectAmine (Invitrogen). Three days after the transfection, the supernatants of the transfected cells were collected, the pH was adjusted to 3.0 and loaded onto a Sephadex C-25 cation exchange column. The column was washed with 1 M acetic acid and eluted with 2 M pyridine and 1 M acetic acid. The eluted proteins were loaded on a C-18 BondElut column, washed with 0.1% TFA, and eluted with 60% acetonitrile and 0.1% TFA. […]
GPCR135 expression vector was transfected into CHO-K1 cells using Lipofectamine (Invitrogen). […] Microscint-40 (Packard) was added to each well and the plate was counted on a top counter (TopCount NTX, Packard).

The text below walks through data of US20060188956A1, “Relaxin3-gpcr135 complexes and their production and use” (priority 2003, published 2006).

Sequence of rat GPCR135 (as listed by the source): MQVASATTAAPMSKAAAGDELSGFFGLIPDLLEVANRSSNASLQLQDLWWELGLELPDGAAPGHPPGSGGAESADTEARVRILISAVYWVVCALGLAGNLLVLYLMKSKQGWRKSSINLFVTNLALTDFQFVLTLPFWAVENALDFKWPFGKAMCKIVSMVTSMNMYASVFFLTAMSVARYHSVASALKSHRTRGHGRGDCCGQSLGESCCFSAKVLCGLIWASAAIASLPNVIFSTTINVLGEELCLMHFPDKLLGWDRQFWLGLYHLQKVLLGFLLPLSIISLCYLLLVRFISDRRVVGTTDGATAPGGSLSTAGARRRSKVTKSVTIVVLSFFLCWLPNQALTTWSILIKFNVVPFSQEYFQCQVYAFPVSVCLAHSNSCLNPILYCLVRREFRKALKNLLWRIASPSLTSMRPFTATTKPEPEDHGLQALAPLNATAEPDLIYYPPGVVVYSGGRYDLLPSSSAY

As for `C=C[C@@]1(C)CC(=O)[C@]2(O)[C@@]3(C)[C@@H](O)CCC(C)(C)[C@@H]3[C@H](O)[C@H](OC(C)=O)[C@@]2(C)O1` [forskalin, reference compound], the “intracellular concentration of cAMP” value at GPCR135 [1] (in the absence of GPCR135) and at GPCR135 [1] (in the presence of GPCR135) was “increases” each time.
Consider “^125I-relaxin3: human relaxin3 labeled with iodine-125, used as radioligand”, for which the “specific binding to GPCR135” value with GPCR135 [2], with mouse GPCR135 and with rat GPCR135 was “specifically binds” in each case.
As to “angiotensin II (DRVYIHPF; Angiotensin-2; UniProt P01019 25-32, looked up)”, the “binding sites on GPCR135” value with GPCR135 [3] is given as “did not produce any binding sites”.
“relaxin3: secreted protein consisting of relaxin3 polypeptide chains A and B linked by disulfide bridges; recombinant human, natural ligand of GPCR135”: the “forskalin-stimulated cAMP accumulation” value in the experiment with GPCR135 [1] (cells expressing GPCR135) is listed as “inhibits”. Moreover, in the experiment with GPCR135 [1] (in the presence of GPCR135), the “intracellular concentration of cAMP” value is listed as “decreases”. For the same molecule, the “activation of LGR7” value in the experiment with LGR7 is recorded as “activates”. Besides, the “Ca2+ mobilization” value in the experiment with GPCR135 [4] was “stimulates”. In addition, the “stimulation of GTPγS binding” value with GPCR135 [5] is given as “potently stimulated”.
